Assay results published in PMC11633186.

Target: VisAG5 (S. gordonii VisA region containing its 7 G5 domains, residues 138-698, C-terminal His-tag) (Streptococcus gordonii DL1)
Assay: SDS-PAGE and western blot against the His-tag (denaturing); purified VisAG5 in Laemmli buffer with 2.5% betamercaptoethanol; size of the band

For “VisAG5 (S. gordonii VisA region containing its 7 G5 domains, residues 138-698, C-terminal His-tag) (domain or fragment)”, which stoichiometry N is on record?
The stoichiometry N was 2.
